Results published in US20110064726A1.

Tests used:
[1] = target: cynomolgus monkey IgE (cynomolgus monkey); test: capture ELISA, antibody coated; Test 1, Cyno 3 serum
[2] = target: cynomolgus monkey IgE (cynomolgus monkey); test: capture ELISA, antibody coated; Test 2, Cyno 2 serum
[3] = target: cynomolgus monkey IgE (cynomolgus monkey); test: capture ELISA, antibody coated; Test 2, Cyno 7 serum
[4] = target: cynomolgus monkey IgE (cynomolgus monkey); test: capture ELISA, antibody coated; Test 1, Cyno 7 serum
[5] = target: cynomolgus monkey IgE (cynomolgus monkey); test: capture ELISA, antibody coated; Test 1, Cyno 2 serum
[6] = target: cynomolgus monkey IgE (cynomolgus monkey); test: capture ELISA, antibody coated; Test 1, Cyno 1 serum
[7] = target: cynomolgus monkey IgE (cynomolgus monkey); test: capture ELISA, antibody coated; Test 2, Cyno 5 serum
[8] = target: cynomolgus monkey IgE (cynomolgus monkey); test: capture ELISA, antibody coated; Test 2, Cyno 1 serum
[9] = target: cynomolgus monkey IgE (cynomolgus monkey); test: capture ELISA, antibody coated; Test 2, Cyno 3 serum
[10] = target: cynomolgus monkey IgE (cynomolgus monkey); test: capture ELISA, antibody coated; Test 1, Cyno 5 serum

IgE concentration detected [1]: 166 ng/mL
IgE concentration detected [2]: 104 ng/mL
IgE concentration detected [3]: 0 ng/mL
IgE concentration detected [4]: 0 ng/mL
IgE concentration detected [5]: 52 ng/mL
IgE concentration detected [6]: 172 ng/mL
IgE concentration detected [7]: 252 ng/mL
IgE concentration detected [8]: 146 ng/mL
IgE concentration detected [9]: 135 ng/mL
IgE concentration detected [10]: 232 ng/mL
Substance: E25 (omalizumab) (antibody)
